{"source": "patent US20150175665A1", "about": "(IPSEN PHARMA S A S, published 2015)", "data": [{"target": "T1, human recombinant GIP receptor (human, UniProt P48546 22-466)", "T1 construct": "whole, on cells; Assayed as washed membranes of CHO-K1 cells expressing the receptor; also called hGIP receptor", "T1 sequence (looked up)": "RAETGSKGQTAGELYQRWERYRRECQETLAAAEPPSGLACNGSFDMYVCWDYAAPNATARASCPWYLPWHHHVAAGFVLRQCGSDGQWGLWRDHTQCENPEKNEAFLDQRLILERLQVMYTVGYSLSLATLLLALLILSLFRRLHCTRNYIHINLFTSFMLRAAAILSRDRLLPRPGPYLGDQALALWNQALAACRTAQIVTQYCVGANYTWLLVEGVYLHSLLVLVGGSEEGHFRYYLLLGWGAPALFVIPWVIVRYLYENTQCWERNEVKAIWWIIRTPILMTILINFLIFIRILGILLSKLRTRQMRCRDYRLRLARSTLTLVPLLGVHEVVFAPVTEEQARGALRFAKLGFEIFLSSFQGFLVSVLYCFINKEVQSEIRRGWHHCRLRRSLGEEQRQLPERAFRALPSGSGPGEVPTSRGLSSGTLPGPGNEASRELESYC", "test": "displacement of [125I]GIP, membranes of CHO-K1 cells expressing human GIP receptor", "procedure": "Membranes for in vitro receptor binding assays were prepared by homogenizing the CHO—K1 clonal cells expressing the human recombinant GIP receptor, with a Brinkman Polytron (setting 6, 15 sec), in ice-cold 50 mM Tris-HCl and then subjected to two centrifugations at 39,000 g for 10 minutes, with a resuspension in fresh buffer in between. For the assay, aliquots of the washed membrane preparations were incubated (100 minutes at 25° C. with 0.05 nM [¹²⁵1]GIP (2200 Ci/mmol) in 50 mM Tris-HCl, 0.1 mg/ml bacitracin, and 0.1% BSA. The final assay volume was 0.5 ml. The incubations were terminated by rapid filtration through GF/C filters (pre-soaked in 0.5% polyethylenimine) using a Brandel filtration manifold. Each tube and filter were then washed three times with 5-ml aliquots of ice-cold buffer.\nSpecific binding was defined as the total radioligand bound minus that bound in the presence of 1000 nM GIP.", "units": {"Ki": "nM"}, "values": [{"binder": "XXEGTFXSDYSIAXDKIHQQDFVNWLLAQK (4Hppa (3-(4-hydroxyphenyl)propionic acid) at 1; Aib at 2; A5c at 7; Nle at 14; C-terminal amide)", "note": "[(4Hppa^1, Aib^2, A5c^7, Nle^14)hGIP(1-30)-NH2]", "Ki": 12.6}, {"binder": "HXEGTFISDYSIXXDKIHQQDFVNWLLAQKGKKNDWKHNITQ (Aib at 2 and 13; Nle at 14)", "note": "[(His^1, Aib^2, 13, Nle^14)hGIP(1-42)-OH]", "Ki": 3.33}, {"binder": "YXEGTFISDYXIAMDKIHQQDFVNWLLAQKGKKNDWKHNIXQ (3NO2-Tyr at 1; Aib at 2; A5c at 11 and 41)", "note": "[(3NO2-Tyr^1, Aib^2, A5c^11, 41)hGIP(1-42)-OH]", "Ki": 11.2}, {"binder": "FXEGTFISDYXIAXDKIHQQDFVNWLLAQKGKKNDWKHNITQ (3,4F-Phe at 1; Aib at 2; A5c at 11; Nle at 14)", "note": "[(3,4F-Phe^1, Aib^2, A5c^11, Nle^14)hGIP(1-42)-OH]", "Ki": 15.7}, {"binder": "YXEGTFISDYXIAMDKIHQQDFVNWLLAQKGKKNDWKHNIXQ (Tyr(Ac) at 1; Aib at 2; A5c at 11 and 41)", "note": "[[Tyr(Ac)^1, Aib^2, A5c^11, 41]hGIP(1-42)-OH]", "Ki": 0.73}, {"binder": "FXEGTFISDYXIAXDKIHQQDFVNWLLAQKGKKNDWKHNITQ (3F-Phe at 1; Aib at 2; A5c at 11; Nle at 14)", "note": "[(3F-Phe^1, Aib^2, A5c^11, Nle^14)hGIP(1-42)-OH]", "Ki": 2.7}, {"binder": "FXEGTFISDYXIAXDKIHQQDFVNWLLAQKGKKNDWKHNITQ (3,4,5F-Phe at 1; Aib at 2; A5c at 11; Nle at 14)", "note": "[(3,4,5F-Phe^1, Aib^2, A5c^11, Nle^14)hGIP(1-42)-OH]", "Ki": 31.1}, {"binder": "FXEGTFISDYXIAXDKIHQQDFVNWLLAQKGKKNDWKHNITQ (4NH2-Phe at 1; Aib at 2; A5c at 11; Nle at 14)", "note": "[(4NH2-Phe^1, Aib^2, A5c^11, Nle^14)hGIP(1-42)-OH]", "Ki": 3.4}, {"binder": "FXEGTFISDYXIAXDKIHQQDFVNWLLAQKGKKNDWKHNITQ (3,5F-Phe at 1; Aib at 2; A5c at 11; Nle at 14)", "note": "[(3,5F-Phe^1, Aib^2, A5c^11, Nle^14)hGIP(1-42)-OH]", "Ki": 26}, {"binder": "FXEGTFISDYXIAXDKIHQQDFVNWLLAQKGKKNDWKHNITQ (4NH2CH2-Phe at 1; Aib at 2; A5c at 11; Nle at 14)", "note": "[(4NH2CH2-Phe^1, Aib^2, A5c^11, Nle^14)hGIP(1-42)-OH]", "Ki": 95}, {"binder": "YXEGTFISDYXIAMDKIHQQDFVNWLLAQKGKKNDWKHNIXQ (3OH-Tyr at 1; Aib at 2; A5c at 11 and 41)", "note": "[(3OH-Tyr^1, Aib^2, A5c^11, 41)hGIP(1-42)-OH]", "Ki": 6.69}, {"binder": "XXEGTFISDYXIAXDKIHQQDFVNWLLAQKGKKNDWKHNITQ (Cpa (4-Cl-phenylalanine) at 1; Aib at 2; A5c at 11; Nle at 14)", "note": "[(Cpa^1, Aib^2, A5c^11, Nle^14)hGIP(1-42)-OH]", "Ki": 9.4}, {"binder": "XXEGTFISDYXIAXDKIHQQDFVNWLLAQKGKKNDWKHNITQ (hTyr at 1; Aib at 2; A5c at 11; Nle at 14)", "note": "[(hTyr^1, Aib^2, A5c^11, Nle^14)hGIP(1-42)-OH]", "Ki": 77.3}, {"binder": "YXEGTFISDYXIAMDKIHQQDFVNWLLAQKGKKNDWKHNIXQ (2,6Me-Tyr at 1; Aib at 2; A5c at 11 and 41)", "note": "[(2,6Me-Tyr^1, Aib^2, A5c^11, 41)hGIP(1-42)-OH]", "Ki": 1.03}, {"binder": "YXEGTFISDYXIAMDKIHQQDFVNWLLAQKGKKNDWKHNIXQ (3MeO-Tyr at 1; Aib at 2; A5c at 11 and 41)", "note": "[(3MeO-Tyr^1, Aib^2, A5c^11, 41)hGIP(1-42)-OH]", "Ki": 1.24}, {"binder": "YXEGTFISDYXIAMDKIHQQDFVNWLLAQKGKKNDWKHNIXQ (Tyr(Me) at 1; Aib at 2; A5c at 11 and 41)", "note": "[[Tyr(Me)^1, Aib^2, A5c^11, 41]hGIP(1-42)-OH]", "Ki": 4.5}, {"binder": "XXEGTFISDYXIAMDKIHQQDFVNWLLAQKGKKNDWKHNIXQ (4-Pal at 1; Aib at 2; A5c at 11 and 41)", "note": "[(4-Pal^1, Aib^2, A5c^11, 41)hGIP(1-42)-OH]", "Ki": 8.14}, {"binder": "XXEGTFISDYXIAMDKIHQQDFVNWLLAQKGKKNDWKHNIXQ (3-Pal at 1; Aib at 2; A5c at 11 and 41)", "note": "[(3-Pal^1, Aib^2, A5c^11, 41)hGIP(1-42)-OH]", "Ki": 9.75}, {"binder": "XXEGTFISDYXIAMDKIHQQDFVNWLLAQKGKKNDWKHNIXQ (3Thi at 1; Aib at 2; A5c at 11 and 41)", "note": "[(3Thi^1, Aib^2, A5c^11, 41)hGIP(1-42)-OH]", "Ki": 7.05}, {"binder": "XXEGTFISDYXIAMDKIHQQDFVNWLLAQKGKKNDWKHNIXQ (Taz at 1; Aib at 2; A5c at 11 and 41)", "note": "[(Taz^1, Aib^2, A5c^11, 41)hGIP(1-42)-OH]", "Ki": 3.28}, {"binder": "YXEGTFISDYXIAXDKIHQQDFVNWLLAQKGKKNDWKHNITQ (3,5Br-Tyr at 1; Aib at 2; A5c at 11; Nle at 14)", "note": "[(3,5Br-Tyr^1, Aib^2, A5c^11, Nle^14)hGIP(1-42)-OH]", "Ki": 21.8}, {"binder": "YXEGTFISDYXIAXDKIHQQDFVNWLLAQKGKKNDWKHNITQ (3Br-Tyr at 1; Aib at 2; A5c at 11; Nle at 14)", "note": "[(3Br-Tyr^1, Aib^2, A5c^11, Nle^14)hGIP(1-42)-OH]", "Ki": 0.6}, {"binder": "YXEGTFISDYXIAXDKIHQQDFVNWLLAQKGKKNDWKHNITQ (3,5I-Tyr at 1; Aib at 2; A5c at 11; Nle at 14)", "note": "[(3,5I-Tyr^1, Aib^2, A5c^11, Nle^14)hGIP(1-42)-OH]", "Ki": 77.9}, {"binder": "FXEGTFISDYXIAMDKIHQQDFVNWLLAQKGKKNDWKHNIXQ (3OH-Phe at 1; Aib at 2; A5c at 11 and 41)", "note": "[(3OH-Phe^1, Aib^2, A5c^11, 41)hGIP(1-42)-OH]", "Ki": 7.52}, {"binder": "YXEGTFISDYSIXXDKIHQQDFVNWLLAQKGKKNDWKHNITQ (3,5Br-Tyr at 1; Aib at 2 and 13; Nle at 14)", "note": "[(3,5Br-Tyr^1, Aib^2, 13, Nle^14)hGIP(1-42)-OH]", "Ki": 4.26}]}]}
